The target in test [1] is GST-PSD95 PDZ domains 1, 2, 3 (Homo sapiens), P78352. Description: G' assay. Further: key of the grades not given here.
Test [2] has as its target GST-DLG1 PDZ domains 1, 2 (Homo sapiens), Q12959. Description: G' assay. Further: key of the grades not given here.
Test [3] addresses GST-KIAA1634 PDZ domain 1 (Homo sapiens (Human)), Q5TCQ9. Description: G' assay. Further: key of the grades not given here.
Test [4] concerns the target T1, GST-NeDLG PDZ domains 1, 2, Q92796.
T1 chain: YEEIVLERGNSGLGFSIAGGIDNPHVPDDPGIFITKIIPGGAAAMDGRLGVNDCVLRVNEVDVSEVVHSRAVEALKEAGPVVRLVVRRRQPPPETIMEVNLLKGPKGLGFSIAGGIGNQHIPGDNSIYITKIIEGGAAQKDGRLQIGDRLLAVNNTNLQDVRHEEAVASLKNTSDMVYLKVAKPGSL
Description: G' assay. Further: key of the grades not given here.

For test [5], the target named is GST-Atrophin-1 Interacting Protein PDZ domain 1 (Rattus norvegicus (Rat)), O88382. In words: G' assay. Further: key of the grades not given here.
The target in test [6] is T2, GST-DLG2 PDZ domain 2 (Homo sapiens (Human)), Q15700.
T2 chain: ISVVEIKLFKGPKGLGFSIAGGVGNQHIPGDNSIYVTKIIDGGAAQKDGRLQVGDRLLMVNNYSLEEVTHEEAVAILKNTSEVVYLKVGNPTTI
Description: G' assay. Further: key of the grades not given here.

Test [7] addresses T3, GST-Outer Membrane PDZ domain 1 (Homo sapiens (Human)), P57105.
T3 chain: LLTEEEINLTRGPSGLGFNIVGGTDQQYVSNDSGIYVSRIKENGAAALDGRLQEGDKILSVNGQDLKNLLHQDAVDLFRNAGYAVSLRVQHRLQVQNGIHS
In words: G' assay. Further: key of the grades not given here.

Test [8] concerns the target T4, GST-DLG1 PDZ domain 2 (Homo sapiens), Q12959.
T4 chain: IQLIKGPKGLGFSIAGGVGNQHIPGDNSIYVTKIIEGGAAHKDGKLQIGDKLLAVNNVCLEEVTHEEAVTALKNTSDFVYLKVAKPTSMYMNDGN
Description: G' assay. Further: key of the grades not given here.

Test [9] addresses GST-DLG1 PDZ domains 1, 2 (Homo sapiens), Q12959. In words: G assay titration, PDZ 5 ug/ml.
In test [10] the target is GST-DLG1 PDZ domain 1 (Homo sapiens), Q12959. In words: G' assay. Further: key of the grades not given here.
Test [11] addresses T5, GST-MUPP1 PDZ domain 11 (Homo sapiens (Human)), O75970.
T5 chain: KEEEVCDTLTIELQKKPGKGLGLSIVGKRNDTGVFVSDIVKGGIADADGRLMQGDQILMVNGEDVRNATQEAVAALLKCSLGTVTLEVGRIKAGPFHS
In words: G' assay. Further: key of the grades not given here.

For test [12], the target named is GST-KIAA0147 PDZ domain 1 (Homo sapiens (Human)), Q14160. In words: G' assay. Further: key of the grades not given here.
For test [13], the target named is T6, GST-KIAA0303 PDZ domain 1 (Homo sapiens (Human)), O15021.
T6 chain: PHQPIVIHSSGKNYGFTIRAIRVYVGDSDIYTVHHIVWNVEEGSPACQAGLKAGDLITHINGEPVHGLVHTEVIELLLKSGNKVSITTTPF
In words: G' assay. Further: key of the grades not given here.

Test [14] has as its target GST-PSD95 PDZ domain 1 (Homo sapiens). Description: G' assay.
Test [15] concerns the target T7, GST-NeDLG PDZ domain 2 (Rattus norvegicus (Rat)), Q62936.
T7 chain: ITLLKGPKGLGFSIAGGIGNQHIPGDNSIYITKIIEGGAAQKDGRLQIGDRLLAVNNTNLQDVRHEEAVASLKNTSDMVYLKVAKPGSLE
Description: G' assay.

Test [16] concerns the target T8, GST-KIAA1719 PDZ domain 3 (Homo sapiens (Human)), Q9C0E4.
T8 chain: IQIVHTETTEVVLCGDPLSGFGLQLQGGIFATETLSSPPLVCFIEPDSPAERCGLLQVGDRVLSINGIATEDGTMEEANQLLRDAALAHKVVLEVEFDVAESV
In words: G' assay.

For test [17], the target named is T9, GST-PSD95 PDZ domain 3 (Homo sapiens).
T9 chain: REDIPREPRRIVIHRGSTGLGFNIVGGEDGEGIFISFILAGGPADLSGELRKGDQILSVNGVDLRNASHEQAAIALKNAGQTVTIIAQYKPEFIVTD
In words: G' assay.

Test [18] concerns the target T10, GST-KIAA0807(S) PDZ domain 1 (Homo sapiens (Human)), Q6P0Q8.
T10 chain: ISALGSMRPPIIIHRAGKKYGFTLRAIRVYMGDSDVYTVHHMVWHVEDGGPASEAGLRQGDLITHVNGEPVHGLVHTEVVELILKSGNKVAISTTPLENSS
In words: G' assay.

The target of test [19] is T11, GST-MUPP1 PDZ domain 10 (Homo sapiens (Human)), O75970.
T11 chain: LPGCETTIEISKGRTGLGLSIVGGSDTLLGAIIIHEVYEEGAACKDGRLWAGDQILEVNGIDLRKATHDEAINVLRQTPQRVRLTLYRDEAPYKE
Description: G' assay.

The target of test [20] is T12, GST-BAI-1 Associated Protein PDZ domain 2 (Mus musculus (Mouse)), Q6RHR9. Description: G' assay. Further: key of the grades not given here.
The target in test [21] is T13, GST-NeDLG PDZ domain 3 (Mus musculus (Mouse)), P70175.
T13 chain: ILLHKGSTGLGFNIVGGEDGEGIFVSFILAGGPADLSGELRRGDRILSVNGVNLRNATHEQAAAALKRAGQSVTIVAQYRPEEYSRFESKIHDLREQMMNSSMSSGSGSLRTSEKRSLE
Description: G' assay.

For test [22], the target named is T14, GST-DLG1 PDZ domain 3 (Homo sapiens), Q12959.
T14 chain: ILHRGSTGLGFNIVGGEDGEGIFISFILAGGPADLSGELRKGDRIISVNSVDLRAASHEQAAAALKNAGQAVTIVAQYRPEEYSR
In words: G' assay.

Test [23] deals with GST-DLG2 PDZ domain 1 (Homo sapiens (Human)), Q15700. In words: G' assay. Further: key of the grades not given here.
Test [24] concerns the target T9, GST-PSD95 PDZ domain 3 (Homo sapiens). Description: G assay titration, PDZ 1 ug/ml.
For test [25], the target named is T12, GST-BAI-1 Associated Protein PDZ domain …. In words: G assay titration, PDZ 1 ug/ml.
Test [26] concerns the target T1, GST-NeDLG PDZ domains 1, 2, Q92796. Description: G assay titration, PDZ 1 ug/ml.

For 2 molecules, Classification and Kd results are on record in patent US20050282743A1, “Molecular interactions in cells” (Arbor Vita Corporation, priority 2001, published 2005).

Sequence of GST-PSD95 PDZ domains 1, 2, 3 (Homo sapiens), P78352 (P78352 62-395): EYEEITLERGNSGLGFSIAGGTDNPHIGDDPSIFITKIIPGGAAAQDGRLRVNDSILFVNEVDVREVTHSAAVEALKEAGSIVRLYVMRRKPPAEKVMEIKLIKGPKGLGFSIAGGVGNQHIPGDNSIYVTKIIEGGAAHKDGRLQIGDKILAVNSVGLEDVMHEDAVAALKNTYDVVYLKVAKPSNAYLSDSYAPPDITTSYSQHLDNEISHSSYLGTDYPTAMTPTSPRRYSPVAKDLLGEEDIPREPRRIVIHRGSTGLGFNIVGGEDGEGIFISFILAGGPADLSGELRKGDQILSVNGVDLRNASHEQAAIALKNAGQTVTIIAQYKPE
T12 sequence (Q6RHR9 455-558): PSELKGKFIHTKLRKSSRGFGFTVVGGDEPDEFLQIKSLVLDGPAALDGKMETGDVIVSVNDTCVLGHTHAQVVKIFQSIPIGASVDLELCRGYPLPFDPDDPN
Sequence of GST-KIAA1634 PDZ domain 1 (Homo sapiens (Human)), Q5TCQ9 (Q5TCQ9 401-502): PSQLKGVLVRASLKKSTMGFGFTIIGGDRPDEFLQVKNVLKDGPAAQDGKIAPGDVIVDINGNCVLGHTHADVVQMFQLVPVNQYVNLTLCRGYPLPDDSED
Sequence of GST-Atrophin-1 Interacting Protein PDZ domain 1 (Rattus norvegicus (Rat)), O88382 (O88382 408-511): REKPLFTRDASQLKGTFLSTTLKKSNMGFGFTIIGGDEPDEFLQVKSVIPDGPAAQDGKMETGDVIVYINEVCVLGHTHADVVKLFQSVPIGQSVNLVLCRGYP
Sequence of GST-KIAA0147 PDZ domain 1 (Homo sapiens (Human)), Q14160 (Q14160 other isoform, or with tags, fused parts or gaps): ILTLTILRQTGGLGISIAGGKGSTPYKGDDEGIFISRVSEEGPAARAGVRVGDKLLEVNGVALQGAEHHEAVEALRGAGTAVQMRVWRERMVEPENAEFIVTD

A word on the Kd: it is the equilibrium constant for the complex coming apart. High values mean a looser complex, low ones a tighter complex. Take LHNQASVPLEPRPLRRESEI (modifications not checked) [Kir2.1 (inwardly rect. K+ channel)]: the Classification in test [1] worked out at 2 A450 class; in test [2], 2 A450 class; in test [3] it was 1 A450 class; in test [4] it was 1 A450 class; in test [5] it was 1 A450 class; in test [6], 1 A450 class. Also, the results for the Classification in test [7] and in test [8] were 4 A450 class and 1 A450 class, respectively. Moreover, in test [9], the Kd stood at 5000 nM.
On to SFTSILTCHQRRTQRKETVA (modifications not checked) [GluR5-2 (rat)], for which the Classification in [10] worked out at 2 A450 class; in [11] it was 1 A450 class; in [12], 2 A450 class; in [13], 1 A450 class; in [14] it was 3 A450 class; in [15], 1 A450 class. In addition, the Classification in test [16] came to 1 A450 class; in test [17], 5 A450 class; in test [1] it was 5 A450 class; in test [2], 5 A450 class; in test [18], 1 A450 class; in test [19] it was 2 A450 class. Moreover, the Classification came out at 5 A450 class in [20]; 2 A450 class in test [21]; 1 A450 class in test [22]; 5 A450 class in test [3]; 5 A450 class in test [4]; 1 A450 class in [5]. Also, the Classification in [23] was 1 A450 class; in [6], 1 A450 class; in test [8], 2 A450 class. For the same molecule, the Kd stood at 100 nM in [24], 300 nM in test [25] and 100 nM in test [26].
